The results in this text go back to patent US20240209076A1 (KODIAK SCIENCES, published 2024).

The term Kd denotes the equilibrium constant for the complex coming apart. A word on the koff: it is the first-order rate constant of dissociation. A low value points to a long-lived complex. The kon is the rate constant with which the complex forms.

For test [1], the target named is T1, human IL-6 (human, UniProt P05231 30-212). The experiment in a line: SPR (Biacore), supernatant antibody on Protein A chip, IL-6 flowed, 37 C. Background: Surface plasmon resonance follows binding to a sensor surface in real time, without labels.
T1 sequence (P05231 30-212 limits assumed): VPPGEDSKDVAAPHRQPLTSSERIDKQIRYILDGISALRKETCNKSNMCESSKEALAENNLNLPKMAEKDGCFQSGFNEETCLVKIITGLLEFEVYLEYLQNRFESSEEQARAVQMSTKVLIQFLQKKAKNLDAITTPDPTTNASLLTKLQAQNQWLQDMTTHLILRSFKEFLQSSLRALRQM
Test [2] deals with T1, human IL-6. The experiment in a line: SPR (Biacore), purified antibody on Protein A chip, IL-6 flowed, 37 C. Here is the method: Antibodies were captured on a Protein A chip (GE) by injecting 1:20 cell supernatant dilutions at 10 μL/min for 60 seconds. […] The sensor chip was regenerated by a 60 seconds injection of 10 mM Glycine pH 1.7 at the flow rate of 50 μL/min. […] For this setup, 1 μg/mL of purified antibody was injected over a Protein A chip at 10 μL/min for 25 seconds. […] The sensor chip was regenerated by a 60 seconds injection of 10 mM Glycine pH 1.7 at flow rate of 50 μL/min. Data analysis for supernatant and purified samples were performed using BIAevaluation software (GE). All sensorgrams were double reference subtracted and fit using a 1:1 Langmuir binding model.

Another test addresses T2, VEGF-A165 (UniProt P15692-4 27-191).
T2 construct: analyte of the Biacore assays
Nature of the test: Biacore T200 SPR at 37 C, binder captured on Protein A chip, VEGF-A165 0.19 to 15 nM in five steps, 60 min dissociation, 1:1 Langmuir fit. Here is the method:
FIGS. 14A-14F illustrate the results for a series of Biacore assays used to determine the affinity between Anti-VEGF agents and VEGF. Binding kinetics between molecules were measured using a Biacore T200 (GE Healthcare) at 37° C. in buffer HBS-EP+ containing 1 mg/mL BSA. […] The sensor chip surface was regenerated by 60 seconds injection of 10 mM Glycine, pH 1.7 at a flow rate of 50 μl/min. All sensorgrams were double reference subtracted and fit using a 1:1 Langmuir binding model.

T2 sequence (P15692 other isoform, or with tags, fused parts or gaps limits assumed): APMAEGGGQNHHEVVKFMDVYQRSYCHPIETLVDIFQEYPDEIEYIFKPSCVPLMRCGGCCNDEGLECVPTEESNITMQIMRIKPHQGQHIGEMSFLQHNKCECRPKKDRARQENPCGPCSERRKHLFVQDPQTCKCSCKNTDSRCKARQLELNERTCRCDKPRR

B1: anti-IL-6 antibody, heavy chain WT / light chain M32L, M50D, N52S, M88Q (antibody, human IgG1, V domains shown)
VH: EVQLVESGGGLVQPGGSLRLSCAASGFTFSPFAMSWVRQAPGKGLEWVAKISPGGSWTYYSDTVTGRFTFSLDTSKSTAYLQMNSLRAEDTAVYYCARQLWGYYALDIWGQGTLVTVSS
VL: DIQLTQSPSSLSASVGDRVTITCSASISVSYLYWYQQKPGKAPKLLIYDDSSLASGVPSRFSGSGSGTDFTLTISSLQPEDFATYYCQQWSGYPYTFGQGTKVEIK
notes: Human IgG1
Regarding B1, in the test with human IL-6 [1], binding was put at a Kd of 0.611 nM, the koff was 0.000414 s⁻¹ and the kon was 677000 M⁻¹ s⁻¹. Further, in the test with human IL-6 [2], the Kd was 0.286 nM, the koff worked out at 0.000319 s⁻¹ and the kon was found to be 1.12e+06 M⁻¹ s⁻¹.

B2: anti-IL-6 antibody, heavy chain T63Q, G66D / light chain M32L, M50D, N52S, M88Q (antibody, human IgG1, V domains shown)
VH: EVQLVESGGGLVQPGGSLRLSCAASGFTFSPFAMSWVRQAPGKGLEWVAKISPGGSWTYYSDQVTDRFTFSLDTSKSTAYLQMNSLRAEDTAVYYCARQLWGYYALDIWGQGTLVTVSS
VL: DIQLTQSPSSLSASVGDRVTITCSASISVSYLYWYQQKPGKAPKLLIYDDSSLASGVPSRFSGSGSGTDFTLTISSLQPEDFATYYCQQWSGYPYTFGQGTKVEIK
notes: Human IgG1
In the test with human IL-6 [1], B2 had a Kd of 0.259 nM, a koff of 0.000461 s⁻¹ and a kon of 1.78e+06 M⁻¹ s⁻¹. In the test with human IL-6 [2], this molecule yielded a Kd of 0.201 nM, a koff of 0.000341 s⁻¹ and an association rate constant (kon) of 1.69e+06 M⁻¹ s⁻¹.

B3: anti-IL-6 antibody, heavy chain S35H, G66D / light chain M32L, M50D, N52S, M88Q (antibody, human IgG1, V domains shown)
VH: EVQLVESGGGLVQPGGSLRLSCAASGFTFSPFAMHWVRQAPGKGLEWVAKISPGGSWTYYSDTVTDRFTFSLDTSKSTAYLQMNSLRAEDTAVYYCARQLWGYYALDIWGQGTLVTVSS
VL: DIQLTQSPSSLSASVGDRVTITCSASISVSYLYWYQQKPGKAPKLLIYDDSSLASGVPSRFSGSGSGTDFTLTISSLQPEDFATYYCQQWSGYPYTFGQGTKVEIK
notes: Human IgG1
In the test with human IL-6 [1], B3 gave a Kd of 0.166 nM, a koff of 0.000539 s⁻¹ and a kon of 3.24e+06 M⁻¹ s⁻¹. In the test with human IL-6 [2], this molecule displayed a Kd of 0.212 nM, a koff of 0.000254 s⁻¹ and a kon of 1.2e+06 M⁻¹ s⁻¹.

B4: anti-IL-6 antibody, heavy chain G66D / light chain M32L, M50D, N52S, M88Q (antibody, human IgG1, V domains shown)
VH: EVQLVESGGGLVQPGGSLRLSCAASGFTFSPFAMSWVRQAPGKGLEWVAKISPGGSWTYYSDTVTDRFTFSLDTSKSTAYLQMNSLRAEDTAVYYCARQLWGYYALDIWGQGTLVTVSS
VL: DIQLTQSPSSLSASVGDRVTITCSASISVSYLYWYQQKPGKAPKLLIYDDSSLASGVPSRFSGSGSGTDFTLTISSLQPEDFATYYCQQWSGYPYTFGQGTKVEIK
notes: Human IgG1
Consider B4, for which, in the test with human IL-6 [1], binding was characterised by a dissociation constant (Kd) of 0.296 nM, the koff amounted to 0.000483 s⁻¹ and the on-rate constant (kon) turned out to be 1.63e+06 M⁻¹ s⁻¹. For the same molecule, in the test with human IL-6 [2], the dissociation constant Kd came to 0.244 nM, the koff was determined as 0.000412 s⁻¹ and the on-rate (kon) stood at 1.69e+06 M⁻¹ s⁻¹.

B5: anti-IL-6 antibody, heavy chain T63K, G66D / light chain M32L, M50D, N52S, M88Q (antibody, human IgG1, V domains shown)
VH: EVQLVESGGGLVQPGGSLRLSCAASGFTFSPFAMSWVRQAPGKGLEWVAKISPGGSWTYYSDKVTDRFTFSLDTSKSTAYLQMNSLRAEDTAVYYCARQLWGYYALDIWGQGTLVTVSS
VL: DIQLTQSPSSLSASVGDRVTITCSASISVSYLYWYQQKPGKAPKLLIYDDSSLASGVPSRFSGSGSGTDFTLTISSLQPEDFATYYCQQWSGYPYTFGQGTKVEIK
notes: Human IgG1
In the test with human IL-6 [1], B5 had a Kd of 0.246 nM, a koff of 0.000529 s⁻¹ and a kon of 2.15e+06 M⁻¹ s⁻¹. In the test with human IL-6 [2], this molecule gave a Kd of 0.252 nM, a koff of 0.000401 s⁻¹ and a kon of 1.59e+06 M⁻¹ s⁻¹.

B6: anti-IL-6 antibody, heavy chain T63E, G66D / light chain M32L, M50D, N52S, M88Q (antibody, human IgG1, V domains shown)
VH: EVQLVESGGGLVQPGGSLRLSCAASGFTFSPFAMSWVRQAPGKGLEWVAKISPGGSWTYYSDEVTDRFTFSLDTSKSTAYLQMNSLRAEDTAVYYCARQLWGYYALDIWGQGTLVTVSS
VL: DIQLTQSPSSLSASVGDRVTITCSASISVSYLYWYQQKPGKAPKLLIYDDSSLASGVPSRFSGSGSGTDFTLTISSLQPEDFATYYCQQWSGYPYTFGQGTKVEIK
notes: Human IgG1
In the test with human IL-6 [1], B6 gave a Kd of 0.242 nM, a koff of 0.000485 s⁻¹ and a kon of 2e+06 M⁻¹ s⁻¹. In the test with human IL-6 [2], the affinity, expressed as Kd, was 0.198 nM; the koff was determined as 0.000327 s⁻¹; the kon came out at 1.65e+06 M⁻¹ s⁻¹.

B7: anti-IL-6 antibody, heavy chain T65Q, G66D / light chain M32L, M50D, N52S, M88Q (antibody, human IgG1, V domains shown)
VH: EVQLVESGGGLVQPGGSLRLSCAASGFTFSPFAMSWVRQAPGKGLEWVAKISPGGSWTYYSDTVQDRFTFSLDTSKSTAYLQMNSLRAEDTAVYYCARQLWGYYALDIWGQGTLVTVSS
VL: DIQLTQSPSSLSASVGDRVTITCSASISVSYLYWYQQKPGKAPKLLIYDDSSLASGVPSRFSGSGSGTDFTLTISSLQPEDFATYYCQQWSGYPYTFGQGTKVEIK
notes: Human IgG1
For B7, in the test with human IL-6 [1], binding was characterised by a dissociation constant (Kd) of 0.258 nM, the koff worked out at 0.000562 s⁻¹ and the association rate constant (kon) turned out to be 2.18e+06 M⁻¹ s⁻¹. In the test with human IL-6 [2], this molecule returned an equilibrium dissociation constant (Kd) of 0.209 nM, a koff of 0.00038 s⁻¹ and an association rate constant (kon) of 1.82e+06 M⁻¹ s⁻¹.

B8: VEGFR_variant_1-Anti-IL-6 (T94I) (other)
fusion: SDTGRPFVEMYSEIPEIIHMTEGRELVIPCRVTSPNITVTLKKFPLDTLIPDGKRIIWDSRKGFIISNATYKEIGLLTCEATVNGHLYKTNYLIHRQTNTIIDVVLSPSHGIELSVGEKLVLNCTARTELNVGIDFNWEYPSSKHQHKKLVNRDLKTQSGSEMKKFLSTLTIDGVTRSDQGLYTCAASSGLMTKKNSTFVRVHEKGGGGSGGGGSEVQLVESGGGLVQPGGSLRLSCAASGFTFSPFAISWVRQAPGKGLEWVAKISPGGSWTYYSDTVTDRFTFSLDTSKSTAYLQMNSLRAEDTAVYYCARQLWGYYALDVWGQGTLVTVSSASTKGPSVFPLAPSSKSTSGGTAALGCLVKDYFPEPVTVSWNSGALTSGVHTFPAVLQSSGLYSLSSVVTVPSSSLGTQTYICNVNHKPSNTKVDKKVEPKSCDKTHTCPPCPAPEAAGAPSVFLFPPKPKDTLMISRTPEVTCVVVDVSHEDPEVKFNWYVDGVEVHNAKTKPREEQYNSTYRVVSVLTVLHQDWLNGKEYKCKVSNKALPAPIEKTISKAKGQPREPQVYTLPPSREEMTKNQVSLTCLVKGFYPSDIAVEWESNGQPENNYKTTPPVLDSDGSFFLYSKLTVDKSRWQQGNVFSCSVMHEALHNHYTQKSLSCSPGK
light: DIQLTQSPSSLSASVGDRVTITCSASISVSYLYWYQQKPGKAPKLLIYDDSSLASGVPSRFSGSGSGTDFTLTISSLQPEDFATYYCQQWSGYPYTFGQGTKVEIKRTVAAPSVFIFPPSDEQLKSGTASVVCLLNNFYPREAKVQWKVDNALQSGNSQESVTEQDSKDSTYSLSSTLTLSKADYEKHKVYACEVTHQGLSSPVTKSFNRGEC
In the test with VEGF-A165, B8 yielded a Kd of 0.0185 nM, a koff of 0.00199 s⁻¹ and an on-rate constant (kon) of 1.08e+08 M⁻¹ s⁻¹.

B9: VEGFR_variant_2-Anti-IL-6 (H95I) (other)
fusion: SDTGRPFVEMYSEIPEIIHMTEGRELVIPCRVTSPNITVTLKKFPLDTLIPDGKRIIWDSRKGFIISNATYKEIGLLTCEATVNGHLYKTNYLTIRQTNTIIDVVLSPSHGIELSVGEKLVLNCTARTELNVGIDFNWEYPSSKHQHKKLVNRDLKTQSGSEMKKFLSTLTIDGVTRSDQGLYTCAASSGLMTKKNSTFVRVHEKGGGGSGGGGSEVQLVESGGGLVQPGGSLRLSCAASGFTFSPFAISWVRQAPGKGLEWVAKISPGGSWTYYSDTVTDRFTFSLDTSKSTAYLQMNSLRAEDTAVYYCARQLWGYYALDVWGQGTLVTVSSASTKGPSVFPLAPSSKSTSGGTAALGCLVKDYFPEPVTVSWNSGALTSGVHTFPAVLQSSGLYSLSSVVTVPSSSLGTQTYICNVNHKPSNTKVDKKVEPKSCDKTHTCPPCPAPEAAGAPSVFLFPPKPKDTLMISRTPEVTCVVVDVSHEDPEVKFNWYVDGVEVHNAKTKPREEQYNSTYRVVSVLTVLHQDWLNGKEYKCKVSNKALPAPIEKTISKAKGQPREPQVYTLPPSREEMTKNQVSLTCLVKGFYPSDIAVEWESNGQPENNYKTTPPVLDSDGSFFLYSKLTVDKSRWQQGNVFSCSVMHEALHNHYTQKSLSCSPGK
light: DIQLTQSPSSLSASVGDRVTITCSASISVSYLYWYQQKPGKAPKLLIYDDSSLASGVPSRFSGSGSGTDFTLTISSLQPEDFATYYCQQWSGYPYTFGQGTKVEIKRTVAAPSVFIFPPSDEQLKSGTASVVCLLNNFYPREAKVQWKVDNALQSGNSQESVTEQDSKDSTYSLSSTLTLSKADYEKHKVYACEVTHQGLSSPVTKSFNRGEC
B9: in the test with VEGF-A165, binding was characterised by a dissociation constant (Kd) of 0.0143 nM, the off-rate (koff) worked out at 0.00164 s⁻¹ and the on-rate constant (kon) was 1.15e+08 M⁻¹ s⁻¹.
